Laboratory results taken from patent publication US5792640.

Legend:
[1] = test system: ZF-QQR-FN (consensus zinc fingers-FokI cleavage domain fusion) (synthetic construct); test: EMSA; conditions: apparent Kd
[2] = test system: ZF-QQR (synthetic construct); test: EMSA; conditions: CITED ref 34; exact hybrid used in cited work not given; cited from earlier work
[3] = test system: ZF-QQR-FN (consensus zinc fingers-FokI cleavage domain fusion) (synthetic construct); test: cleavage_in_vitro; conditions: DNA strand cleaved, ~100-fold slower than duplex; RNA strand not cleaved
[4] = target: ZF-Sp1C (synthetic construct) (UniProt P08047); test: EMSA; conditions: CITED ref 34; DNA-RNA hybrid; cited from earlier work
Sequence of ZF-Sp1C (synthetic construct) (P08047 626-708): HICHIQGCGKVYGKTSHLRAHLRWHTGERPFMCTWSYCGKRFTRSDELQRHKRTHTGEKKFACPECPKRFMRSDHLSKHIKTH

Sequence	Kd [1] [nM]	Kd [2] [nM]	activity [3] [%]	Kd [4] [nM]
GAGCTCCTTTGGATCCAAGCTTCCCGGGGAAGAATTCGAGGAGGCTCTCGAGGTCGACTTCCTCTAGAGGTACC / GGUACCUCUAGAGGAAGUCGACCUCGAGAGCCUCCUCGAAUUCUUCCCCGGGAAGCUUGGAUCCAAACCAGCUC [QQR site DNA-RNA hybrid]	3	2.8	1	
GGGGCGGGG [Sp1C site DNA-RNA hybrid]				40
